Source: publication PMC3463815 (Scientific Reports, 2012)

Molecular target: T1, VEGF_(34-121), 88-residue VEGF fragment displayed on S. carnosus (Homo sapiens)
T1 chain: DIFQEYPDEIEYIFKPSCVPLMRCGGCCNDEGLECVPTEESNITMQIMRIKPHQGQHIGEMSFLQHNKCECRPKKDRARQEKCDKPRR
Assay: flow cytometry on cells

- binding result: binds
B1: Avastin (antibody, V domains shown)
VH: EVQLVESGGGLVQPGGSLRLSCAASGYTFTNYGMNWVRQAPGKGLEWVGWINTYTGEPTYAADFKRRFTFSLDTSKSTAYLQMNSLRAEDTAVYYCAKYPHYYGSSHWYFDVWGQGTLVTVSS
VL: DIQMTQSPSSLSASVGDRVTITCSASQDISNYLNWYQQKPGKAPKVLIYFTSSLHSGVPSRFSGSGSGTDFTLTISSLQPEDFATYYCQQYSTVPWTFGQGTKVEIK
